Data: article PMC5366859

Test system: MBP-rAtCHE (Arabidopsis thaliana (homoeolog cloned from resynthesized A. thaliana x A. arenosa allotetraploid))
Assay: EMSA
Settings: reference for normalization; 25 mM HEPES pH 7.5, 2.5 mM DTT, 75 mM KCl, 10% glycerol, 1.25 ng poly-dIdC, 10 nM (~15 fmol) DNA, on ice 20 min; 5% native PAGE

Substance: AtCCA1p
- binding signal (fold (reference for rAaCHE)): 1
